Results: US20120045438A1 (Janssen / Centocor, published 2012)
Positions count from the first letter of the chain named.

B1: Fab clone 3G01 (IL-13-62 library) (Fab, V domains shown)
VH: QVTLKESGPVLVKPTETLTLTCTVSGFSLSTYGMGVGWIRQPPGKALEWLAHIWWDDVKRYNPALKSRLTISKDTSKSQVVLTMTNMDPVDTATYYCARMGSDYDVWFDYWGQGTLVTVSS
VL: EIVLTQSPATLSLSPGERATLSCRASKSISKYLAWYQQKPGQAPRLLIYSGSTLQSGIPARFSGSGSGTDFTLTISSLEPEDFAVYYCQQQDLGPYTFGQGTKLEIK
notes: Fab on phage pIX
B2: Fab clone 1F05 (IL-13-62 library) (Fab, V domains shown)
VH: B1 VH
VL: B1 VL with Q91H, D92V, L93G
notes: Fab on phage pIX
B3: Fab clone 3A10 (IL-13-62 library) (Fab, V domains shown)
VH: B1 VH
VL: B1 VL with Q91H, D92V, L93W
notes: Fab on phage pIX
B4: Fab clone 1H12 (IL-13-62 library) (Fab, V domains shown)
VH: B1 VH
VL: B1 VL with Q91H
notes: Fab on phage pIX
B5: Fab clone 3F08 (IL-13-62 library) (Fab, V domains shown)
VH: B1 VH
VL: B1 VL with Q91H, D92L, L93M
notes: Fab on phage pIX
B6: Fab clone 1H06 (IL-13-62 library) (Fab, V domains shown)
VH: B1 VH
VL: B1 VL with Q91H, L93W, G94A
notes: Fab on phage pIX
B7: Fab clone 3E03 (IL-13-62 library) (Fab, V domains shown)
VH: B1 VH
VL: B1 VL with Q91H, D92S, L93I
notes: Fab on phage pIX
B8: Fab clone 1F12 (IL-13-62 library) (Fab, V domains shown)
VH: B1 VH
VL: B1 VL with Q91H, D92N, L93H
notes: Fab on phage pIX
B9: Fab clone 4F07 (IL-13-62 library) (Fab, V domains shown)
VH: B1 VH
VL: B1 VL with Q91P, D92I, L93D, G94A
notes: Fab on phage pIX
B10: Fab clone 2D09 (IL-13-62 library) (Fab, V domains shown)
VH: B1 VH
VL: B1 VL with Q91H, D92N, L93V
notes: Fab on phage pIX
B11: Fab clone 3H12 (IL-13-62 library) (Fab, V domains shown)
VH: B1 VH
VL: B1 VL with Q91H, L93S
notes: Fab on phage pIX
B12: Fab clone 1D08 (IL-13-62 library) (Fab, V domains shown)
VH: B1 VH
VL: B1 VL with Q91H, L93W, G94E
notes: Fab on phage pIX
B13: Fab clone 1F04 (IL-13-62 library) (Fab, V domains shown)
VH: B1 VH
VL: B1 VL with Q91H, D92S, L93S
notes: Fab on phage pIX
B14: Fab clone 2G06 (IL-13-62 library) (Fab, V domains shown)
VH: B1 VH
VL: B1 VL with S56G, Q91H, D92L, L93D, G94S
notes: Fab on phage pIX
B15: Fab clone 1G05 (IL-13-62 library) (Fab, V domains shown)
VH: B1 VH
VL: B1 VL with L93I
notes: Fab on phage pIX
B16: Fab clone 1F11 (IL-13-62 library) (Fab, V domains shown)
VH: B1 VH
VL: B1 VL with Q91H, D92S, L93V
notes: Fab on phage pIX
B17: Fab clone 1H05 (IL-13-62 library) (Fab, V domains shown)
VH: B1 VH
VL: B1 VL with L93Y
notes: Fab on phage pIX
B18: Fab clone 1D02 (IL-13-62 library) (Fab, V domains shown)
VH: B1 VH
VL: B1 VL with S76G, Q91H, L93W, G94S
notes: Fab on phage pIX
B19: Fab clone 4B10 (IL-13-62 library) (Fab, V domains shown)
VH: B1 VH
VL: B1 VL with Q91H, D92F, L93W
notes: Fab on phage pIX
B20: Fab clone 3C01 (IL-13-62 library) (Fab, V domains shown)
VH: B1 VH
VL: B1 VL with Q91H, D92N, L93F
notes: Fab on phage pIX
B21: Fab clone 1H02 (IL-13-62 library) (Fab, V domains shown)
VH: B1 VH
VL: B1 VL with Q91H, D92L
notes: Fab on phage pIX
B22: Fab clone 3D11 (IL-13-62 library) (Fab, V domains shown)
VH: B1 VH
VL: B1 VL with Q91H, D92L, L93N
notes: Fab on phage pIX
B23: Fab clone 2A11 (IL-13-62 library) (Fab, V domains shown)
VH: B1 VH
VL: B1 VL with Q91H, D92S, L93H
notes: Fab on phage pIX
B24: Fab clone 4D01 (IL-13-62 library) (Fab, V domains shown)
VH: B1 VH
VL: B1 VL with Q91P, D92L, L93D, G94V
notes: Fab on phage pIX
B25: Fab clone 2A07 (IL-13-62 library) (Fab, V domains shown)
VH: B1 VH
VL: B1 VL with Q91H, L93P
notes: Fab on phage pIX
B26: Fab clone 3G05 (IL-13-62 library) (Fab, V domains shown)
VH: B1 VH
VL: B1 VL with Q91P, D92L, L93D, G94S
notes: Fab on phage pIX
B27: Fab clone 2E07 (IL-13-62 library) (Fab, V domains shown)
VH: B1 VH
VL: B1 VL with Q91P, D92L, L93E, G94A
notes: Fab on phage pIX
B28: Lc4Hc2 (antibody, V domains shown)
VH: B1 VH
VL: DIQMTQSPSSLSASVGDRVTITCRASKSISKYLAWYQQKPGKAPKRLIYSGSTLQSGVPSRFSGSGSGTEFTLTISSLQPEDFATYYCQQHNEYPYTFGGGTKVEIK
B29: Lc3Hc6 (antibody, V domains shown)
VH: QVQLVESGGGVVQPGRSLRLSCAASGFSLSTYGMGVGWVRQAPGKGLEWVAHIWWDDVKRYNPALKSRFTISRDNSKNTLYLQMNSLRAEDTAVYYCARMGSDYDVWFDYWGQGTLVTVSS
VL: B28 VL with D1A, M4L, R46L, E70D
B30: Lc7Hc1 (antibody, V domains shown)
VL: B28 VL with M4L, Q37R, A43V, R46L, E70D, F83V, C88G, G100Q, V104L
VH: B1 VH with V10A, E16Q, V24F, S78N
B31: Lc15Hc1 (antibody, V domains shown)
VH: B1 VH with V10A, E16Q, V24F, S78N
VL: B28 VL with D1V, Q3W, S10L, V15T, T22S, K45E, R46L, E70D, S77C, P80S
B32: Lc15Hc2 (antibody, V domains shown)
VH: B1 VH
VL: B28 VL with D1V, Q3W, S10L, V15T, T22S, K45E, R46L, E70D, S77C, P80S
B33: Lc12Hc1 (antibody, V domains shown)
VH: B1 VH with V10A, E16Q, V24F, S78N
VL: B28 VL with G41E, R46S, E70D
B34: Lc10Hc2 (antibody, V domains shown)
VH: B1 VH
VL: B28 VL with M4L, S10F, R46L
B35: Lc7Hc6 (antibody, V domains shown)
VL: B28 VL with M4L, Q37R, A43V, R46L, E70D, F83V, C88G, G100Q, V104L
VH: B29 VH
B36: Lc5Hc2 (antibody, V domains shown)
VH: B1 VH
VL: B28 VL with M4L, S10F, R46L, G100Q
B37: Lc11Hc2 (antibody, V domains shown)
VH: B1 VH
VL: B28 VL with D1A, Q3R, L11F, V15T, R46L, E70D, S77C, P80S

The binders below were run against T1, human IL-13 R130Q variant (R110Q of the mature chain) (human, UniProt P35225 35-146, Biotinylated on amines (NHS-LC-biotin, 4:1) in ELISA, panning and competition assays. The letters are unchanged.) (assay: single-point (10 nM) phage Fab ELISA on biotinylated IL-13 R130Q).
T1 construct: R130Q counts from Met 1 of the signal peptide, R110Q on the mature chain; Bought from Peprotech; also called IL-13 R110Q; b-R130Q
In the case of B1, the “Signal (% of Lc16Hc7)” value is reported as 122%. B2 was tested, and the “Signal (% of Lc16Hc7)” value was 144%. B3 was tested, and the “Signal (% of Lc16Hc7)” value was 160%. With B4 the “Signal (% of Lc16Hc7)” value was 111%. In the case of B5, the “Signal (% of Lc16Hc7)” value is reported as 111%. For B6, the “Signal (% of Lc16Hc7)” value was 139%. With B7 the “Signal (% of Lc16Hc7)” value was 122%. B8 was tested, and the “Signal (% of Lc16Hc7)” value was 100%. With B9 the “Signal (% of Lc16Hc7)” value was 116%. B10 was tested, and the “Signal (% of Lc16Hc7)” value was 108%. For B11, the “Signal (% of Lc16Hc7)” value was 120%. In the case of B12, the “Signal (% of Lc16Hc7)” value is reported as 116%. With B13 the “Signal (% of Lc16Hc7)” value was 108%. For B14, the “Signal (% of Lc16Hc7)” value was 112%. For B15, the “Signal (% of Lc16Hc7)” value was 144%. With B16 the “Signal (% of Lc16Hc7)” value was 108%. In the case of B17, the “Signal (% of Lc16Hc7)” value is reported as 172%. In the case of B18, the “Signal (% of Lc16Hc7)” value is reported as 117%. With B19 the “Signal (% of Lc16Hc7)” value was 117%. B20 was tested, and the “Signal (% of Lc16Hc7)” value was 124%. In the case of B21, the “Signal (% of Lc16Hc7)” value is reported as 148%. In the case of B22, the “Signal (% of Lc16Hc7)” value is reported as 136%. With B23 the “Signal (% of Lc16Hc7)” value was 132%. In the case of B24, the “Signal (% of Lc16Hc7)” value is reported as 140%. With B25 the “Signal (% of Lc16Hc7)” value was 136%. For B26, the “Signal (% of Lc16Hc7)” value was 108%. With B27 the “Signal (% of Lc16Hc7)” value was 104%.

Each binder was assayed against T1, human IL-13 R130Q variant (R110Q of the …) (assay: competition ELISA, biotinylated IL-13 R130Q binding to plate-bound IL-13Ra2, crude supernatant).
In the case of B28, the “Percent Inhibition IL-13 R130Q (333 ng/ml) to Ra2” value (from here on “Percent Inhibition IL-13 R130Q”) is reported as 55%. With B29 the “Percent Inhibition IL-13 R130Q” value was 14%. For B30, the “Percent Inhibition IL-13 R130Q” value was 6%. B31 was tested, and the “Percent Inhibition IL-13 R130Q” value was 44%. B32 was tested, and the “Percent Inhibition IL-13 R130Q” value was 61%. For B33, the “Percent Inhibition IL-13 R130Q” value was 26%. In the case of B34, the “Percent Inhibition IL-13 R130Q” value is reported as 57%. B35 was tested, and the “Percent Inhibition IL-13 R130Q” value was 4%. In the case of B36, the “Percent Inhibition IL-13 R130Q” value is reported as 57%. B37 was tested, and the “Percent Inhibition IL-13 R130Q” value was 51%.

These binders were tested against T1, human IL-13 R130Q variant (R110Q of the …) (assay: direct binding ELISA, mAb captured by anti-human Fc, biotinylated IL-13 R130Q, crude supernatant;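 note: 100% is the positive control mAb signal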).
With B28 the “Percent IL-13 R130Q (30 ng/ml) Binding” value was 84.7%. With B29 the “Percent IL-13 R130Q (30 ng/ml) Binding” value was 26.6%. With B30 the “Percent IL-13 R130Q (30 ng/ml) Binding” value was -1.4%. For B31, the “Percent IL-13 R130Q (30 ng/ml) Binding” value was 76.2%. B32 was tested, and the “Percent IL-13 R130Q (30 ng/ml) Binding” value was 94.8%. For B33, the “Percent IL-13 R130Q (30 ng/ml) Binding” value was 36.4%. In the case of B34, the “Percent IL-13 R130Q (30 ng/ml) Binding” value is reported as 78.9%. For B35, the “Percent IL-13 R130Q (30 ng/ml) Binding” value was -0.3%. For B36, the “Percent IL-13 R130Q (30 ng/ml) Binding” value was 85.9%. For B37, the “Percent IL-13 R130Q (30 ng/ml) Binding” value was 92.2%.
